From the RNAGym collection of RNA variant scans (doi:10.1021/acssynbio.7b00057)

B1: Pistol ribozyme (parent)
chain: GGGUCGUUGUUCCAUAAUCGCGUGGAUAUGGCACGCAAGUUUCUACCGGGCACCGUAAAUGUCCGACUGGAGCCGUUCGGGCGGCUAUAAACAGACCUCAGGCCCGAAGCGUGGCGGCACCUGCCGCCGGUGGUAAAAAAGAUCGGAAGAGCACACGUCU

Variants of: B1
Assay: aptazyme ON/OFF ratio, guanine; higher = stronger switching; co-transcriptional cleavage with and without guanine

Row | Variant | aptazyme ON/OFF ratio
1 | U7A U8G G9C U11A C12A C13U | 1.47
2 | U7A U8G G9C U11A C12A C13A | 1.25
3 | U7A U8G G9C U11A C12A C13G | 1.37
4 | U7A U8G G9C U10C | 2.58
5 | U7A U8G G9C U10G | 1.46
6 | U7A U8G G9C U10A | 1.24
7 | U7A U8G G9C C12U C13A | 1.4
8 | U7A U8G G9C C12U C13G | 1.22
9 | U7A U8G G9C C12U C13U | 1.21
10 | U7A U8G G9C U10C C12A | 1.15
11 | U7A U8G G9C U10C C12U | 1.24
12 | U7A U8G G9C U10C C12G | 1.4
13 | U7A U8G G9C U11C C12G C13A | 1.19
14 | U7A U8G G9C U11C C12G C13G | 1.11
15 | U7A U8G G9C U11C C12G C13U | 1.37
16 | U7A U8G G9C U11A C12U C13G | 1.37
17 | U7A U8G G9C U11A C12U C13U | 1.46
18 | U7A U8G G9C U11A C12U C13A | 1.4
19 | U7A U8G G9A U11C C12U C13A | 1.07
20 | U7A U8G G9A U11C C12U C13G | 0.973
21 | U7A U8G G9A U11C C12U C13U | 1.46
22 | U7A U8G G9C U11C C13G | 1.1
23 | U7A U8G G9C U11C C13U | 1.44
24 | U7A U8G G9C U11C C13A | 1.37

Row | Variant | aptazyme ON/OFF ratio
25 | U7A U8G G9C U10A U11C | 1.04
26 | U7A U8G G9C U10A U11A | 1.89
27 | U7A U8G G9C U10A U11G | 1.9
28 | U7A U8G G9C U10A U11C C12A | 1.29
29 | U7A U8G G9C U10A U11C C12G | 1.22
30 | U7A U8G G9C U10A U11C C12U | 1.04
31 | U7A U8G G9U C12G | 1.64
32 | U7A U8G G9U C12A | 1.53
33 | U7A U8G G9U C12U | 1.62
34 | U7A U8G G9C U10C U11G C12U C13U | 1.41
35 | U7A U8G G9C U10C U11G C12U C13G | 1.15
36 | U7A U8G G9C U10C U11G C12U C13A | 1.15
37 | U7A U8G G9C U10G C13U | 1.17
38 | U7A U8G G9C U10G C13G | 1.19
39 | U7A U8G G9C U10G C13A | 1.52
40 | U7A U8G G9A U11C C12G C13U | 1.14
41 | U7A U8G G9A U11C C12G C13G | 1.4
42 | U7A U8G G9A U11C C12G C13A | 1.32
43 | U7A U8G G9U C12A C13U | 1.2
44 | U7A U8G G9U C12A C13A | 1.28
45 | U7A U8G G9U C12A C13G | 1.44
46 | U7A U8G G9C U10G U11G C12G C13U | 1.14
47 | U7A U8G G9C U10G U11G C12G C13G | 1.24
48 | U7A U8G G9C U10G U11G C12G C13A | 1.32

Row | Variant | aptazyme ON/OFF ratio
49 | U7A U8G G9C U10C C12G C13U | 1.46
50 | U7A U8G G9C U10C C12G C13G | 1.2
51 | U7A U8G G9C U10C C12G C13A | 1.23
52 | U7A U8G G9C U10C C12A C13U | 1.12
53 | U7A U8G G9C U10C C12A C13G | 1.05
54 | U7A U8G G9C U10C C12A C13A | 1.08
55 | U7A U8G G9U U10A C12A C13A | 1.31
56 | U7A U8G G9C U10C U11A C12A C13A | 1.17
57 | U7A U8G G9C U10C U11A C12A C13U | 1.18
58 | U7A U8G G9C U10C U11A C12A C13G | 1.1
59 | U7A U8G G9C U10C U11C C12A C13A | 1.01
60 | U7A U8G G9C U10C U11C C12A C13U | 1.04
61 | U7A U8G G9C U10C U11C C12A C13G | 1.06
62 | U7A U8G G9C U10G C12G C13G | 1.17
63 | U7A U8G G9C U10G C12G C13A | 1.3
64 | U7A U8G G9C U10G C12G C13U | 1.44
65 | U7A U8G G9C U10G U11A C13A | 1.11
66 | U7A U8G G9C U10G U11A C13G | 1.25
67 | U7A U8G G9C U10G U11A C13U | 1.15
68 | U7A U8G G9A U11A C12G | 1.37
69 | U7A U8G G9A U11A C12U | 1.38
70 | U7A U8G G9A U11A C12A | 1.56
71 | U7A U8G G9C U11C | 1.35
72 | U7A U8G G9C U11G | 1.57

Row | Variant | aptazyme ON/OFF ratio
73 | U7A U8G G9C U11A | 2.34
74 | U7A U8G G9C U10G C12A C13A | 1.31
75 | U7A U8G G9C U10G C12A C13G | 1.1
76 | U7A U8G G9C U10G C12A C13U | 1.56
77 | U7A U8G G9C U10G U11C C12A C13G | 1.22
78 | U7A U8G G9C U10G U11C C12A C13U | 1.29
79 | U7A U8G G9C U10G U11C C12A C13A | 1.38
80 | U7A U8G G9C C12G C13U | 1.34
81 | U7A U8G G9C C12G C13A | 1.36
82 | U7A U8G G9C C12G C13G | 1.18
83 | U7A U8G G9C U10A U11A C12A C13A | 1.5
84 | U7A U8G G9C U10A U11A C12A C13G | 1.35
85 | U7A U8G G9C U10A U11A C12A C13U | 1.38
86 | U7A U8G G9A U11G C12A C13U | 1.07
87 | U7A U8G G9A U11G C12A C13G | 1.39
88 | U7A U8G G9A U11G C12A C13A | 1.16
89 | U7A U8G G9C U10C U11A | 1.03
90 | U7A U8G G9C U10C U11G | 1.26
91 | U7A U8G G9C U10C U11C | 0.976
92 | U7A U8G G9C U10G U11A C12G | 1.39
93 | U7A U8G G9C U10G U11A C12A | 1.42
94 | U7A U8G G9C U10G U11A C12U | 1.2
95 | U7A U8G G9C U11A C13U | 1.36
96 | U7A U8G G9C U11A C13G | 1.15

Row | Variant | aptazyme ON/OFF ratio
97 | U7A U8G G9C U11A C13A | 1.44
98 | U7A U8G G9C U10A U11A C13G | 1.15
99 | U7A U8G G9C U10A U11A C13U | 1.26
100 | U7A U8G G9C U10A U11A C13A | 1.15
101 | U7A U8G G9C U10G U11C C13U | 1.04
102 | U7A U8G G9C U10G U11C C13G | 1.08
103 | U7A U8G G9C U10G U11C C13A | 1.1
104 | U7A U8G G9C U10C U11C C12U C13U | 1.01
105 | U7A U8G G9C U10C U11C C12U C13A | 1.05
106 | U7A U8G G9C U10C U11C C12U C13G | 1.06
107 | U7A U8G G9C U10G U11C C12U C13G | 1.37
108 | U7A U8G G9C U10G U11C C12U C13A | 1.31
109 | U7A U8G G9C U10G U11C C12U C13U | 1.21
110 | U7A U8G G9C U10C C12U C13A | 1.14
111 | U7A U8G G9C U10C C12U C13U | 1.38
112 | U7A U8G G9C U10C C12U C13G | 1.17
113 | U7A U8G G9C U10G U11C C12G C13A | 1.27
114 | U7A U8G G9C U10G U11C C12G C13G | 1.3
115 | U7A U8G G9C U10G U11C C12G C13U | 1.4
116 | U7A U8G G9C U10G U11G C12U | 1.2
117 | U7A U8G G9C U10G U11G C12A | 1.36
118 | U7A U8G G9C U10G U11G C12G | 1.19
119 | U7A U8G G9C U11A C12G C13U | 1.28
120 | U7A U8G G9C U11A C12G C13A | 1.11

Row | Variant | aptazyme ON/OFF ratio
121 | U7A U8G G9C U11A C12G C13G | 1.35
122 | U7A U8G G9C U11G C13G | 1.22
123 | U7A U8G G9C U11G C13A | 1.43
124 | U7A U8G G9C U11G C13U | 1.4
125 | U7A U8G G9C C12A | 1.78
126 | U7A U8G G9C C12U | 1.88
127 | U7A U8G G9C C12G | 1.29
128 | U7A U8G G9C U10G U11G C12U C13A | 1.2
129 | U7A U8G G9C U10G U11G C12U C13U | 1.48
130 | U7A U8G G9C U10G U11G C12U C13G | 1.18
131 | U7A U8G G9C U10A U11G C13U | 1.37
132 | U7A U8G G9C U10A U11G C13A | 1.29
133 | U7A U8G G9C U10A U11G C13G | 1.26
134 | U7A U8G G9C U10A C12G | 1.43
135 | U7A U8G G9C U10A C12A | 1.4
136 | U7A U8G G9C U10A C12U | 1.36
137 | U7A U8G G9A U11C C12A C13A | 1.14
138 | U7A U8G G9A U11C C12A C13G | 1.3
139 | U7A U8G G9A U11C C12A C13U | 1.38
140 | U7A U8G G9A U11A C12U C13A | 1.37
141 | U7A U8G G9A U11A C12U C13G | 1.28
142 | U7A U8G G9A U11A C12U C13U | 1.32
143 | U7A U8G G9C U10A U11C C12G C13U | 1.26
144 | U7A U8G G9C U10A U11C C12G C13A | 1.27

Row | Variant | aptazyme ON/OFF ratio
145 | U7A U8G G9C U10A U11C C12G C13G | 1.17
146 | U7A U8G G9C U10A C12U C13U | 1.11
147 | U7A U8G G9C U10A C12U C13A | 1.31
148 | U7A U8G G9C U10A C12U C13G | 1.21
149 | U7A U8G G9C U10A U11G C12G C13G | 1.72
150 | U7A U8G G9C U10A U11G C12G C13A | 1.14
151 | U7A U8G G9C U10A U11G C12G C13U | 1.25
152 | U7A U8G G9C U10G U11A C12G C13A | 1.33
153 | U7A U8G G9C U10G U11A C12G C13G | 1.39
154 | U7A U8G G9C U10G U11A C12G C13U | 1.46
155 | U7A U8G G9C U10C U11C C12G C13U | 1.07
156 | U7A U8G G9C U10C U11C C12G C13A | 1.29
157 | U7A U8G G9C U10C U11C C12G C13G | 1.08
158 | U7A U8G G9C U10C U11G C12A C13G | 1.15
159 | U7A U8G G9C U10C U11G C12A C13U | 1.06
160 | U7A U8G G9C U10C U11G C12A C13A | 1.17
161 | U7A U8G G9A U10G U11G C12G | 1.24
162 | U7A U8G G9A U10G U11G C12U | 1.32
163 | U7A U8G G9U U10A | 1.18
164 | U7A U8G G9C U11C C12A | 2.15
165 | U7A U8G G9C U11C C12G | 1.65
166 | U7A U8G G9C U11C C12U | 1.49
167 | U7A U8G G9C U10C U11G C13U | 1.23
